From patent CN113234143A

Biological target: HBV表面抗原蛋白 (HBsAg) (Hepatitis B virus)
Test: SPR, Biacore 3000; 7E5 captured by AHC on a CM5 chip, HBsAg as analyte in 2-fold dilutions from 40 nM to 0 nM

- Kd: 21.5 nM
- koff: 0.000445 s⁻¹
- kon: 20700 M⁻¹ s⁻¹
B1: 抗HBsAg单克隆抗体7E5 (antibody, V domains shown)
VH: EVQLQQSGPELVKPGASVKMSCKASGYTFTARGYNWVRQSHGKSLEWIGGINCRPTAMSPEDLVKDKATLTVDKSSNTVYMEFRSLTLEDSAIYFCARRECPINQGDYWGQGTIFTVSS
VL: EIVLTQSPALMAASPGEKVTITCGCARNTIWNNVGWYQQKSETSPKPWIYWASLFGKGVPVRFSGSGSGTSYSLTISSMEAEDAATYYCQDIQENWTPFGAGTKLELK
